Experimental findings from patent EP2468776 are described below.

The assay deals with T1, Slit2-His (UniProt O94813).
T1 chain: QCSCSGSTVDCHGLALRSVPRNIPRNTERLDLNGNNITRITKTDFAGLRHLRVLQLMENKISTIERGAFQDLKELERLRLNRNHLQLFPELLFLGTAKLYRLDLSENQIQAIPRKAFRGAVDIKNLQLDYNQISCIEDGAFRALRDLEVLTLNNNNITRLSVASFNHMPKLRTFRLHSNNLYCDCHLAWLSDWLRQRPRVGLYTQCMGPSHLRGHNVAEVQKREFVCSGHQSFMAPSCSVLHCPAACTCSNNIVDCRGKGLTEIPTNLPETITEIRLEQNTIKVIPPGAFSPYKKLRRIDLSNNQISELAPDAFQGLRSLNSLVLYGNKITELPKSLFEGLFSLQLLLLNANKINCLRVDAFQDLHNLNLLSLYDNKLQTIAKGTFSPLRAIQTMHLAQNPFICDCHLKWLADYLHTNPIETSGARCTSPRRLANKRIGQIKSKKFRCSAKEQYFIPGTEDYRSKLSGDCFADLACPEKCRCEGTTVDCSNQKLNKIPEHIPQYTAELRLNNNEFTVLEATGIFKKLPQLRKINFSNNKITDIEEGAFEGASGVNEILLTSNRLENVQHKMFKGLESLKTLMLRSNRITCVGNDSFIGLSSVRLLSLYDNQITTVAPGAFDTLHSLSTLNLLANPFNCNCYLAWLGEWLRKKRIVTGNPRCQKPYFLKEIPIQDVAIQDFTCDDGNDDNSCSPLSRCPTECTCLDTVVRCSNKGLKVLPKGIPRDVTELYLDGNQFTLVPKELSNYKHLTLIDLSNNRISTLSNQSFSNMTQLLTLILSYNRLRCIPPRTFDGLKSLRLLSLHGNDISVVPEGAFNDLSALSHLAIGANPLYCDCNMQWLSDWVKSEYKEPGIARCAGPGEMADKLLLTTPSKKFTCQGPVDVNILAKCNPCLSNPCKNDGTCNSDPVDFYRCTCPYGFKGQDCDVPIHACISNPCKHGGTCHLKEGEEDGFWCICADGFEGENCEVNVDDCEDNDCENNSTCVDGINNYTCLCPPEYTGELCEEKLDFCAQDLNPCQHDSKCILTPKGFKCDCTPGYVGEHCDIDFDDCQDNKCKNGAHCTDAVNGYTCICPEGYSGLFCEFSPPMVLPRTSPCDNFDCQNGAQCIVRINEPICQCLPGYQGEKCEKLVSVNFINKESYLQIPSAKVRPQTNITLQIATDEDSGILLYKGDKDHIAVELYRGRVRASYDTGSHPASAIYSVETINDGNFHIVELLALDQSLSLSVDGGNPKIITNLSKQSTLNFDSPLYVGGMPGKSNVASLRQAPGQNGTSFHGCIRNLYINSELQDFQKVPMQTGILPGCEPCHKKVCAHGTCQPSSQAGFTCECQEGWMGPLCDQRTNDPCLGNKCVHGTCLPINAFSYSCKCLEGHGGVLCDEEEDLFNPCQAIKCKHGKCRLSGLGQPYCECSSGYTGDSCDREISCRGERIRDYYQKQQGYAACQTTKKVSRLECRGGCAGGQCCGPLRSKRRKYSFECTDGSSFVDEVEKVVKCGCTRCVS
Kind of assay: SPR.

B1: Robo4-Fc (protein)
chain: QDSPPQILVHPQDQLFQGPGPARMSCQASGQPPPTIRWLLNGQPLSMVPPDPHHLLPDGTLLLLQPPARGHAHDGQALSTDLGVYTCEASNRLGTAVSRGARLSVAVLREDFQIQPRDMVAVVGEQFTLECGPPWGHPEPTVSWWKDGKPLALQPGRHTVSGGSLLMARAEKSDEGTYMCVATNSAGHRESRAARVSIQEPQDYTEPVELLAVRIQLENVTLLNPDPAEGPKPRPAVWLSWKVSGPAAPAQSYTALFRTQTAPGGQGAPWAEELLAGWQSAELGGLHWGQDYEFKVRPSSGRARGPDSNVLLLRLPEKVPSAPPQEVTLKPGNGTVFVSWVPPPAENHNGIIRGYQVWSLGNTSLPPANWTVVGEQTQLEIATHMPGSYCVQVAAVTGAGAGEPSRPVCLLLEQAMERATQEPSEHGPWTLEQLRATLKRPEVIATCGVALWLLLLGTAVCIHRRRRARVHLGPGLYRYTSEDAILKHRMDHSDSQWLADTWRSTSGSRDLSSSSSLSSRLGADARDPLDCRRSLLSWDSRSPGVPLLPDTSTFYGSLIAELPSSTPARPSPQVPAVRRLPPQLAQLSSPCSSSDSLCSRRGLSSPRLSLAPAEAWKAKKKQELQHANSSPLLRGSHSLELRACELGNRGSKNLSQSPGAVPQALVAWRALGPKLLSSSNELVTRHLPPAPLFPHETPPTQSQQTQPPVAPQAPSSILLPAAPIPILSPCSPPSPQASSLSGPSPASSRLSSSSLSSLGEDQDSVLTPEEVALCLELSEGEETPRNSVSPMPRAPSPPTTYGYISVPTASEFTDMGRTGGGVGPKGGVLLCPPRPCLTPTPSEGSLANGWGSASEDNAASARASLVSSSDGSFLADAHFARALAVAVDSFGFGLEPREADCVFIDASSPPSPRDEIFLTPNLSLPLWEWRPDWLEDMEVSHTQRLGRGMPPWPPDSQISSQRSQLHCRMPKAGASPVDYS
Consider B1, for which the binding result is reported as “no binding”.
